Patent US20120108455A1

How the values were obtained:
[1] = biological target: FLAG-tag marker (Alpha Diagnostic Cat # FLAG15-R); assay: ELISA, 25% human serum in KRB, pH 7.4
[2] = biological target: FLAG-tag marker (Alpha Diagnostic Cat # FLAG15-R); assay: ELISA, 25% human serum in KRB, pH 6.0
[3] = biological target: Multifusion-tagged marker (Alpha Diagnostic Cat # MFPM20-C); assay: ELISA, 25% human serum in KRB, pH 7.4
[4] = biological target: Myc-tag marker (Alpha Diagnostic Cat # Myc15-R); assay: ELISA, 25% human serum in KRB, pH 7.4
[5] = biological target: Myc-tag marker (Alpha Diagnostic Cat # Myc15-R); assay: ELISA, 25% human serum in KRB, pH 6.0

Kd [1] [µg/mL]	Kd [2] [µg/mL]	Kd [3] [µg/mL]	Kd [4] [µg/mL]	Kd [5] [µg/mL]	Substance
0.224	0.135				anti-FLAG antibody (Abcam, ab1238)
		0.02	0.00798	0.00773	anti-myc antibody (Abcam, #ab1326)
